For assay [1], the target named is T1, human ROR1 (hROR1) expressed on cells (human, UniProt Q01973 30-937).
T1 construct: Mino cells are the target positive cells of the killing assay; also called receptor tyrosine kinase like orphan receptor 1; HCT 116-hROR1
The assay can be described thus: flow cytometry, HCT116-hROR1 cells.

Assay [2] addresses T2, human ROR1-ECD (human, UniProt Q01973 30-406).
T2 construct: Bought protein; also called hROR1; ROR1-extracellular domain
The assay can be described thus: SPR (Biacore), antibody captured by anti-Fc, human ROR1-ECD analyte. How it is done: Anti-Fc polyclonal antibodies were immobilized onto a CMS chip (GE Life Sciences) using amine coupling chemistry (from Amine Coupling Kit, GE Life Sciences). The immobilization steps were carried out at a flow rate of 25 μL/min in 1×HBS-EP+buffer (GE Life Sciences; 10× Stock diluted before use). The sensor surfaces were activated for 7 min with a mixture of NHS (0.05 M) and EDC (0.2 M). The Anti-Fc antibodies were injected over all 4 flow cells at a concentration of 25 ug/ml in 10 mM sodium acetate, pH 4.5, for 7 min. Ethanolamine (1 M, pH 8.5) was injected for 7 min to block any remaining activated groups.
Off-rate and kinetic binding experiments were performed at 25° C. using 1×HBS-EP+buffer. Test and control antibodies were injected over the anti-Fc surface at concentrations of 5-10 μg/mL for 12 seconds at a flow rate of 10 μL/min on flow cells 2, 3 and 4, followed by a buffer wash for 30 seconds at the same flow rate. […] After capturing ligand (antibody) on the anti-Fc surface, the analyte (hROR1, Fz or Kr domains, Acro Biosystems, Delaware) was bound for 180 seconds, followed by a 600 second dissociation phase at a flow rate of 50 μL/min. Between each ligand capture and analyte binding cycle, regeneration was carried out using 2 injections of 10 mM Glycine pH 2.0 for 30 seconds at 30 μL/min, followed by a 30 second buffer wash step.

B1: SRP2188-A10 (antibody, IgG1, V domains shown)
VH: EVQLVESGGGLVQPGGSLRLSCAASGFNINSYDIHWVRQAPGKGLEWVGWINPEDGDTSHADSVKGRFTISADTSKNTAYLQMNSLRAEDTAVYYCARDYGVFDYWGQGTLVTVSS
VL: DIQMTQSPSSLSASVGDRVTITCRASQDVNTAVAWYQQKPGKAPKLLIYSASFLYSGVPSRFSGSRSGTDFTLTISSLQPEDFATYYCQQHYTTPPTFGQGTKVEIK
notes: IgG1 with trastuzumab LC; HIS- and FLAG-tagged; cell-free expressed
Regarding B1, in assay [1], the “Bmax (MFI)” value was 9150 MFI and the Kd (commonly the constant that tells how readily two partners part at equilibrium) came out at 0.03 nM. In assay [2], the Kd was 0.426 nM; the koff – broadly, a measure of how fast the partners let go of each other – is 0.000222 s⁻¹; the on-rate (kon) (in general, the rate constant with which the complex forms) is 522000 M⁻¹ s⁻¹.

B2: SRP2188-E05 (antibody, IgG1, V domains shown)
VH: EVQLVESGGGLVQPGGSLRLSCAASGFNISDYDIHWVRQAPGKGLEWVAGIEPWDGSTDHADSVKGRFTISADTSKNTAYLQMNSLRAEDTAVYYCARDYGVFDYWGQGTLVTVSS
VL: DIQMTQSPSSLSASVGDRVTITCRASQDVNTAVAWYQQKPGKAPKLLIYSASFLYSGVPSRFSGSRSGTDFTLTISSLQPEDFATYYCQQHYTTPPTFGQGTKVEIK
notes: as for B1
For the molecule B2, in assay [1], the “Bmax (MFI)” value came out at 10600 MFI and the affinity, expressed as Kd, was 0.05 nM. In assay [2], this molecule yielded a Kd of 0.369 nM, a koff of 0.00031 s⁻¹ and a kon of 840000 M⁻¹ s⁻¹.

B3: SRP2188-C05 (antibody, IgG1, V domains shown)
VH: EVQLVESGGGLVQPGGSLRLSCAASGFNINSFDIHWVRQAPGKGLEWVGGIDPRDGSTDSADSVKGRFTISADTSKNTAYLQMNSLRAEDTAVYYCARDYGVFDYWGQGTLVTVSS
VL: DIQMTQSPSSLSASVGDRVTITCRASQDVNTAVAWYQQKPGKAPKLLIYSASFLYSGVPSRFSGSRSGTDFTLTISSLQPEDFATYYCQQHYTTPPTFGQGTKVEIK
notes: as for B1
On to B3, for which, in assay [1], the “Bmax (MFI)” value was 9510 MFI and the Kd is 0.06 nM. Also, in assay [2], the equilibrium dissociation constant (Kd) turned out to be 0.427 nM, the koff amounted to 0.000453 s⁻¹ and the kon came to 1.06e+06 M⁻¹ s⁻¹.

B4: SRP2188-F02 (antibody, IgG1, V domains shown)
VH: EVQLVESGGGLVQPGGSLRLSCAASGFNISDYDIHWVRQAPGKGLEWVAWIDPSDGSTEHADSVKGRFTISADTSKNTAYLQMSSLRAEDTAVYYCARDYGVFDYWGQGTLVTVSS
VL: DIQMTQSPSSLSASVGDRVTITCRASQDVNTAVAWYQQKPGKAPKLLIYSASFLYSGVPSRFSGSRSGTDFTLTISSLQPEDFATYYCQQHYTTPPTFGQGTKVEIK
notes: as for B1
Consider B4, for which, in assay [1], the “Bmax (MFI)” value was 9850 MFI and the Kd was 0.03 nM.

B5: SRP2188-D11 (antibody, IgG1, V domains shown)
VH: EVQLVESGGGLVQTGGSLRLSCAASGFNIRDYDIHWVRQAPGKGLEWVGLIDPDDGSTDEADSVKGRFTISADTSKNTAYLQMNSLRAEDTAVYYCARDYGVFDYWGQGTLVTVSS
VL: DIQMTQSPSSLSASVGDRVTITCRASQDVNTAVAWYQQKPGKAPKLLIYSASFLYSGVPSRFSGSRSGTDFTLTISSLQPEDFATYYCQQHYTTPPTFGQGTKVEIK
notes: as for B1
In the case of B5, in assay [1], the “Bmax (MFI)” value is 9600 MFI and binding was put at a Kd of 0.02 nM. Also, in assay [2], binding was put at a Kd of 0.741 nM, the koff is 0.00055 s⁻¹ and the kon amounted to 743000 M⁻¹ s⁻¹.

B6: SRP2188-D08 (antibody, IgG1, V domains shown)
VH: EVQLVESGGGLVQPGGSLRLSCAASGFNIRDYDIHWVRQAPGKGLEWVVGIDPDDGATDEADSVKGRFTISADTSKNTAYLQMNSLRAEDTAVYYCARDYGVFDYWGQGTLVTVSS
VL: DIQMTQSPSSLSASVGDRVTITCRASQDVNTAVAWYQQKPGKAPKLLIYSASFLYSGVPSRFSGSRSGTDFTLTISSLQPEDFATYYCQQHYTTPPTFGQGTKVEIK
notes: as for B1
Regarding B6, in assay [1], the “Bmax (MFI)” value is 9600 MFI and the Kd worked out at 0.05 nM. In assay [2], this molecule registered a Kd of 0.381 nM, a koff of 0.000268 s⁻¹ and a kon of 703000 M⁻¹ s⁻¹.

B7: SRP2188-E11 (antibody, IgG1, V domains shown)
VH: EVQLVESGGGLVQPGGSLRLSCAASGFNISHYDIHWVRQAPGKGLEWVSGIDPGDGATDHADSVKGRFTISADTSKNTAYLQMNSLRAEDTAVYYCARDYGVFDYWGQGTLVTVSS
VL: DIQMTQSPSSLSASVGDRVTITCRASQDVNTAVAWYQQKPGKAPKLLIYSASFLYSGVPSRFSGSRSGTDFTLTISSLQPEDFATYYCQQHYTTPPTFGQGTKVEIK
notes: as for B1
For B7, in assay [1], the “Bmax (MFI)” value came out at 9250 MFI and the Kd came to 0.03 nM.

B8: SRP2188-C04 (antibody, IgG1, V domains shown)
VH: EVQLVESGGGLVQPGGSLRLSCAASGFNINSYDIHWVRQAPGKGLEWVGWINPEDGDTYHADSVRGRFTISADTSKNTAYLQMNSLRAEDTAVYYCARDYGVYDYWGQGTLVTVSS
VL: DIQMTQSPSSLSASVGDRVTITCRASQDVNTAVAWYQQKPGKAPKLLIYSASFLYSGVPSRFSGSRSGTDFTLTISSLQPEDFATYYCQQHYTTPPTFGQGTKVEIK
notes: as for B1
In the case of B8, in assay [1], the “Bmax (MFI)” value was found to be 9500 MFI and the Kd was determined as 0.03 nM. Further, in assay [2], the affinity, expressed as Kd, was 0.139 nM; the koff was found to be 0.000101 s⁻¹; the kon is 723000 M⁻¹ s⁻¹.

B9: SRP2188-C11 (antibody, IgG1, V domains shown)
VH: EVQLVESGGGLVQPGGSLRLSCAASGFNIKSYDIHWVRQAPGKGLEWVGWINPDDGDTYLADSVKGRFTISADTSKNTAYLQMNSLRAEDTAVYYCARDYGVFDYWGQGTLVTVSS
VL: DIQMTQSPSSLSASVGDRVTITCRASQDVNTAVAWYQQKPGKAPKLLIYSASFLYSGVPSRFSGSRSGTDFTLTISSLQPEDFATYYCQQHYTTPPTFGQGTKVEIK
notes: as for B1
For the molecule B9, in assay [1], the “Bmax (MFI)” value was found to be 9210 MFI and the Kd turned out to be 0.04 nM. In assay [2], this molecule came in with a Kd of 0.873 nM, a koff of 0.000617 s⁻¹ and a kon of 707000 M⁻¹ s⁻¹.

B10: SRP2188-E08 (antibody, IgG1, V domains shown)
VH: EVQLVESGGGLVQPGGSLRLSCAASGFNIIDFDIHWVRQAPGKGLEWVGGIDPQDGSTDLADSVKGRLTISADTSKNTAYLQMNSLRAEDTAVYYCARDYGVFDYWGQGTLVTVSS
VL: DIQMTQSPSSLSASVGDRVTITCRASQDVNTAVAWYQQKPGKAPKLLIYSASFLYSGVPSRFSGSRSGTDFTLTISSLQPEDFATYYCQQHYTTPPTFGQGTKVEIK
notes: as for B1
In the case of B10, in assay [1], the “Bmax (MFI)” value came to 9330 MFI and binding was characterised by a dissociation constant (Kd) of 0.03 nM.

B11: SRP2188-F07 (antibody, IgG1, V domains shown)
VH: EVQLVESGGGLVQPGGSLRLSCAASGFNISDYDIHWVRQAPGKGLEWVGGIDPNDGSTDHADSVKGRFTISADTSKNMAYLQMNSLRAEDTAVYYCARDYGVFDYWGQGTLVTVSS
VL: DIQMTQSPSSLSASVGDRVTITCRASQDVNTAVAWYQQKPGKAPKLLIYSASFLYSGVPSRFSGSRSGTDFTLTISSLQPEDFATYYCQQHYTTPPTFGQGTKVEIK
notes: as for B1
On to B11, for which, in assay [1], the “Bmax (MFI)” value was 9870 MFI and the Kd stood at 0.03 nM.

B12: SRP2188-E09 (antibody, IgG1, V domains shown)
VH: EVQLVESGGGLVQPGGSLRLSCAASGFNISDFDIHWVRQAPGKGLEWVAEIDPQDGWTVHADSVKGRFTISADTSKNTAYLQMNSLRAEDTAVYYCARDYGVFDYWGQGTLVTVSS
VL: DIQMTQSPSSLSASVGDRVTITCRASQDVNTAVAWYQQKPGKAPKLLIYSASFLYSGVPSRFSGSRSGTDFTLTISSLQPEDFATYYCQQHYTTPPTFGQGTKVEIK
notes: as for B1
On to B12, for which, in assay [1], the “Bmax (MFI)” value amounted to 9780 MFI and the Kd was 0.02 nM.

B13: SRP2188-B10 (antibody, IgG1, V domains shown)
VH: EVQLVESGGGLVQPGGSLRLSCAASGFNINSYDIHWVRQAPGKGLEWVGWINPHDGDTYHADSVKGRFTISADTSKNTAYLQMNSLRAEDTAVYYCARDYGVFDYWGQGTLVTVSS
VL: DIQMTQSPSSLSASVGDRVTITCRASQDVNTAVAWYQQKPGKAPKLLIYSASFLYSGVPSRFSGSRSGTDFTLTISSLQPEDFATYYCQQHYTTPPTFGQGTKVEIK
notes: as for B1
Regarding B13, in assay [1], the “Bmax (MFI)” value was found to be 9000 MFI and the Kd was found to be 0.04 nM. In assay [2], this molecule yielded a Kd of 0.462 nM, a koff of 0.000539 s⁻¹ and a kon of 1.17e+06 M⁻¹ s⁻¹.

B14: SRP2188-A11 (antibody, IgG1, V domains shown)
VH: EVQLVESGGGLVQPGGSLRLSCAASGFNISDYDIHWVRQAPGKGLEWVSLIDPKDGATDSADSVKGRFTISADTSKNTAYLQMNSLRAGDTAVYYCARDYGVFDYWGQGTLVTVSS
VL: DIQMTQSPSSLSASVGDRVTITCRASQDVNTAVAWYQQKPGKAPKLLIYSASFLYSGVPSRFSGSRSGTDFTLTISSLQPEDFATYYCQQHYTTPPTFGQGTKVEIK
notes: as for B1
For the molecule B14, in assay [1], the “Bmax (MFI)” value is 8340 MFI and the Kd stood at 0.06 nM. In assay [2], the Kd turned out to be 0.354 nM, the koff turned out to be 0.000379 s⁻¹ and the kon is 1.07e+06 M⁻¹ s⁻¹.

B15: SRP2188-D05 (antibody, IgG1, V domains shown)
VH: EVQLVESGGGLVQPGGSLRLSCAASGFNISEYDIHWVRQAPGKGLEWVGGIDPHDGWTDHADSVKGRFTISADTSKNTAYLQMNSLRAEDTAVYYCARDYGVYDYWGQGTLVTVSS
VL: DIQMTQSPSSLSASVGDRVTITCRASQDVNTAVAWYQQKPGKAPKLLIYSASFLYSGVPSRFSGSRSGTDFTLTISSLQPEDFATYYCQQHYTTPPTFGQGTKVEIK
notes: as for B1
Regarding B15, in assay [1], the “Bmax (MFI)” value came to 9840 MFI and the Kd stood at 0.04 nM. In assay [2], this molecule showed a Kd of 0.48 nM, a koff of 0.000359 s⁻¹ and a kon of 747000 M⁻¹ s⁻¹.

B16: SRP2188-C10 (antibody, IgG1, V domains shown)
VH: EVQLVESGGGLVQPGGSLRLSCAASGFNINSYDIHWVRQAPGKGLEWVGWINPDDGDTYHADSVKGRFTISADTSKNTAYLQMNSLRAEDTAVYYCARDYGVFDYWGQGTLVTVSS
VL: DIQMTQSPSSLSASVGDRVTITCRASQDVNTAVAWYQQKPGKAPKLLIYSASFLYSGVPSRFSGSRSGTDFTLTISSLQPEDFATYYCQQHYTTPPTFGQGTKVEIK
notes: as for B1
For B16, in assay [1], the “Bmax (MFI)” value is 9310 MFI and binding was put at a Kd of 0.05 nM.

B17: SRP2188-F01 (antibody, IgG1, V domains shown)
VH: EVQLVESGGGLVQPGGSLRLSCAASGFNIRYYDIHWVRQAPGKGLEWVGLIDPDDGWTVSADSVKGRFTISADTSKNTAYLQMNSLRAEDTAVYYCARDYGVFDYWGQGTLVTVSS
VL: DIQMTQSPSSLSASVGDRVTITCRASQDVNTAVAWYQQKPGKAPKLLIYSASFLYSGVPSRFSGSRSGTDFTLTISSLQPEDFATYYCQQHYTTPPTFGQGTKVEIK
notes: as for B1
In the case of B17, in assay [1], the “Bmax (MFI)” value is 8660 MFI and binding was characterised by a dissociation constant (Kd) of 0.02 nM. In assay [2], binding was characterised by a dissociation constant (Kd) of 0.546 nM, the koff worked out at 0.000316 s⁻¹ and the kon was determined as 578000 M⁻¹ s⁻¹.

B18: SRP2188-E06 (antibody, IgG1, V domains shown)
VH: EVQLVESGGGLVQPGGSLRLSCAASGFNIGDYDIHWVRQAPGKGLEWVGGIDPEDGATDIADSVKGRFTISADTSKNTAYLQMDSLRAEDTAVYYCARDYGVFDYWGQGTLVTVSS
VL: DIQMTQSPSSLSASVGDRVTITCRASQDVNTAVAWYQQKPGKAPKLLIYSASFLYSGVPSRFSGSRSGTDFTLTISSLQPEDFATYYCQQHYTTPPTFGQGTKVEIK
notes: as for B1
As to B18, in assay [1], the “Bmax (MFI)” value came out at 9970 MFI and the Kd was 0.04 nM. In assay [2], this molecule yielded a Kd of 0.438 nM, a koff of 0.000346 s⁻¹ and a kon of 790000 M⁻¹ s⁻¹.

B19: SRP2188-B06 (antibody, IgG1, V domains shown)
VH: EVQLVESGGGLVQPGGSLRLSCAASGFNIHSYDIHWVRQAPGEGLEWVGWINPDDGDTYHADSVKGRFTISADTSKNTAYLQMNSLRAEDTAVYYCARDYGVFDYWGQGTLVTVSS
VL: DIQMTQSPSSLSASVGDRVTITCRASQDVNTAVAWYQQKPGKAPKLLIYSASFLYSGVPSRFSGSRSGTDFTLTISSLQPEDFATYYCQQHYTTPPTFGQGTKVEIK
notes: as for B1
As for B19, in assay [1], the “Bmax (MFI)” value came to 9130 MFI and binding was characterised by a dissociation constant (Kd) of 0.06 nM. In assay [2], this molecule yielded a Kd of 0.504 nM, a koff of 0.000467 s⁻¹ and an on-rate (kon) of 927000 M⁻¹ s⁻¹.

B20: SRP2188-E07 (antibody, IgG1, V domains shown)
VH: EVQLVESGGGLVQPGGSLRLSCAASGFNIGDYGIHWVRQAPGKGLEWVGGIDPEDGFTVHADSVKGRFTISADTSKNTAYLQMNSLRAEDTAVYYCARDYGVYDYWGQGTLVTVSS
VL: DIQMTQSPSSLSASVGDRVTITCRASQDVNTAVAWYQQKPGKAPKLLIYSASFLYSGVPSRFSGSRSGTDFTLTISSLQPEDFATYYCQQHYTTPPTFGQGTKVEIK
notes: as for B1
Take B20: in assay [1], the “Bmax (MFI)” value turned out to be 7600 MFI and the Kd is 0.02 nM.

B21: SRP2188-B09 (antibody, IgG1, V domains shown)
VH: EVQLVESGGGLVQPGGSLRLSCAASGFNINSYDIHWVRQAPGKGLEWVGVIDPKDGWTDHADSVKGRFTISADTSKNTAYLQMNSLRTEDTAVYYCARDYGVFDYWGQGTLVTVSS
VL: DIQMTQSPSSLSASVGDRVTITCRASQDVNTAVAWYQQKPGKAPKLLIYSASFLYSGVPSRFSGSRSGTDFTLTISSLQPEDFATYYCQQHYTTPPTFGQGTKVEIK
notes: as for B1
With B21, in assay [1], the “Bmax (MFI)” value came to 9420 MFI and the Kd is 0.05 nM. In addition, in assay [2], the affinity, expressed as Kd, was 0.657 nM; the koff worked out at 0.000579 s⁻¹; the kon was determined as 882000 M⁻¹ s⁻¹.

(Values after patent US20240058465A1 (SUTRO BIOPHARMA, published 2024).)
